Assays:
[1] = molecular target: T1, human E-selectin extracellular domain with 10 His purification tail (human, UniProt P16581 22-556); experiment: SPR, antibody captured, E-selectin analyte
T1 construct: also called soluable human E-selectin extracellular domain; rhE-Selectin
T1 sequence: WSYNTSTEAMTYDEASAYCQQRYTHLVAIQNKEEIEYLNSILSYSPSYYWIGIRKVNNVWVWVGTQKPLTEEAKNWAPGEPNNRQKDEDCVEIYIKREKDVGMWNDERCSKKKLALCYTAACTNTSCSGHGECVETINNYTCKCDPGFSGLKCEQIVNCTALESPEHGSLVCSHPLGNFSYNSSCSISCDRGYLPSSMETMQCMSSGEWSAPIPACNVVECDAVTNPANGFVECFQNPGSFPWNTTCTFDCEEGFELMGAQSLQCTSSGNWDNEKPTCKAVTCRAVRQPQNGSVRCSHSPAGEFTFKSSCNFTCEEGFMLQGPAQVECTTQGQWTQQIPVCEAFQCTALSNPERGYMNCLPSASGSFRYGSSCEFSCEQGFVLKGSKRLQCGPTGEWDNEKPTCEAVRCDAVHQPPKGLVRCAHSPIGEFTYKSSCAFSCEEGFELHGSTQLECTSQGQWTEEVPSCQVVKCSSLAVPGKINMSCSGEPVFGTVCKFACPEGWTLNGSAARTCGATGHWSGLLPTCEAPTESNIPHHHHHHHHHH
Protocol: (§1) Final immobilization level of the capture antibody was approximately 10,000 resonance units (RU). The running buffer for immobilization and kinetics was HBS-EP+(10 mM 4-(2-hydroxyethyl)-1-piperazineethanesulfonic acid (HEPES) pH 7.4, 150 mM sodium chloride, 3 mM ethylenediaminetetraacetic acid (EDTA), 0.05% (v/v) Tween-20).
(§2) To characterize binding of antibodies to human, cynomolgus monkey, and mouse E-selectin, an antibody was diluted to 0.5 μg/mL in HBS-EP+ and captured by the anti-human IgG immobilized on flow cells 2, 3 and 4 for 30 seconds to 1 minute at a flow rate of 10 μL/minute to achieve a capture level of 70 to 300 RU. Flow cell 1 was used as a reference surface. […] HBS-EP+ buffer cycles collected for each captured antibody were used for double-referencing (Myszka D G. J. Mol. Recognition 1999; 12(5):279-84). At the end of each cycle, the entire anti-IgG surface was regenerated by a 30 second pulse of 3 M MgCl₂ and a 30 second pulse of ionic buffer (1.83 M MgCl₂, 0.92 M Urea, 1.83 M Guanidine HCl, pH 7.4) (Andersson K. Analy. Chem. 1999; 71(13): 2475-81). Kinetic assays were conducted at 25° C. at a collection rate of 10 Hertz (Hz) on a BIAcore™ T200 instrument (GE Healthcare). Rate constants and affinities were determined by fitting the data to a 1:1 binding model in BIAcore™ T200 Evaluation software version 3.0 (GE Healthcare).
(§3) This was done by first binding the antibody to immobilized anti-human IgG. After antibody capture, dilutions of the E-selectin proteins were flowed over and the association rate constant (ka), disassociation rate constant (kd), t½, and KD values were determined for binding to human and cynomolgus E-selectin (Table 13).

[2] = molecular target: T2, cynomolgus monkey E-selectin extracellular domain with 10 His purification tail (cynomolgus monkey, UniProt P16581 22-554 (human entry)); experiment: SPR, antibody captured, E-selectin analyte
T2 construct: also called cynomolgus E-selectin; truncated cynomolgus monkey E-selectin
T2 chain: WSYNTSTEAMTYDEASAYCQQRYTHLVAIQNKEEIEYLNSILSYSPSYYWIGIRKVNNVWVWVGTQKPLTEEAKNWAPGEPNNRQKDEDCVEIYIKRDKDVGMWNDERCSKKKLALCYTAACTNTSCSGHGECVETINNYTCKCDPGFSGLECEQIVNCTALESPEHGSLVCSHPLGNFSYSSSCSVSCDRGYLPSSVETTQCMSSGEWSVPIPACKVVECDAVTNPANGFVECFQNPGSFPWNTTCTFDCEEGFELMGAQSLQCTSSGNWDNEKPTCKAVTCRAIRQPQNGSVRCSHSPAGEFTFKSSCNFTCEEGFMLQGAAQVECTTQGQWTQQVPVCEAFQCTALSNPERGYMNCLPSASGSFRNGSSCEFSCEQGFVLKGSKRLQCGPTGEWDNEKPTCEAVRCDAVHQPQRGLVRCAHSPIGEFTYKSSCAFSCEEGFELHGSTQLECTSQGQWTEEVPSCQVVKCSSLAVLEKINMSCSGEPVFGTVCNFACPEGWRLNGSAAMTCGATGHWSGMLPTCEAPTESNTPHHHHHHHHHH
Protocol: as §1, §2, §3

Kd [1]: 92.8 nM
koff [1]: 0.0237 s⁻¹
kon [1]: 255000 M⁻¹ s⁻¹
t½ [1]: 29.3 s
Kd [2]: 138 nM
koff [2]: 0.0252 s⁻¹
kon [2]: 182000 M⁻¹ s⁻¹
t½ [2]: 27.6 s
B1: humanized anti-E-selectin antibody 0841 (antibody, human IgG1, kappa, V domains shown)
VH: EVQLVESGGGLVQPGGSLRLSCAASGYNIRSSYMHWVRQAPGKGLEWVARIDPANGNTIYAEKFKIRFTISADNAKNSAYLQMNSLRAEDTAVYYCAMDLYSTSEYWGQGTLVTVSS
VL: DIQMTQSPSSLSASVGDRVTITCKTSQNINRYLNWYQQKPGKAPKLLIYNANSLQTGVPSRFSGSGSGTDFTLTISSLQPEDFATYFCLQDNSWPLTFGQGTKVEIKR
notes: effector-null human IgG1, kappa
